# Reference: patent US20210380637A1
# Bridges are numbered along the chain shown (N, C = ends).
# Legend:
# [1] = target: human serum-derived γ-globulin (Sigma-Aldrich); test: DBC on peptide-immobilized column, 0 NaOH wash cycles
# [2] = target: human serum-derived γ-globulin (Sigma-Aldrich); test: DBC on peptide-immobilized column, 0 NaOH wash cycles (reference)
# [3] = target: human serum-derived γ-globulin (Sigma-Aldrich); test: DBC on peptide-immobilized column after 1 wash cycle with 0.1 M NaOH
# [4] = target: human serum-derived γ-globulin (Sigma-Aldrich); test: DBC on peptide-immobilized column after 2 wash cycles with 0.1 M NaOH
# [5] = target: human serum-derived γ-globulin (Sigma-Aldrich); test: DBC on peptide-immobilized column after 5 wash cycles with 0.1 M NaOH
# [6] = target: human serum-derived γ-globulin (Sigma-Aldrich); test: DBC on peptide-immobilized column after 10 wash cycles with 0.1 M NaOH
# human IgG = test: SPR (BIAcore T200), human IgG immobilized on chip, peptide injected at 15.6-1000 nM
# [7] = target: human serum-derived γ-globulin (Sigma-Aldrich); test: column chromatography, peptide immobilized on 1 mL NHS-activated column, 1 mg/mL human γ-globulin at 1 mL/min
DBC 10% [1],DBC 10% (% NaOH wash cycle 0) [2],DBC 10% [3],DBC 10% (% NaOH wash cycle 0) [3],DBC 10% [4],DBC 10% (% NaOH wash cycle 0) [4],DBC 10% [5],DBC 10% (% NaOH wash cycle 0) [5],DBC 10% [6],DBC 10% (% NaOH wash cycle 0) [6],Kd (human IgG),koff (human IgG),kon (human IgG),"DBC (dynamic binding capacity, 10% breakthrough) [7]",Binder
13.5 mg/mL,100%,12.4 mg/mL,91.9%,11.5 mg/mL,85.2%,8.9 mg/mL,65.9%,6.1 mg/mL,45.2%,–,–,–,–,{NH2‑PEG4}-GPDCAYHRGELVWCTFH-NH2 (disulfide 4-14)
9.4 mg/mL,100%,9.5 mg/mL,101%,9.4 mg/mL,100%,9.2 mg/mL,97.9%,8.9 mg/mL,94.7%,0.34 µM,0.22 s⁻¹,650000 M⁻¹ s⁻¹,9.4 mg/mL-column,"GPDCAYHRGELVWCTFH (N-terminal H2N-PEG4; C-terminal amide; position 4 built as homoserine (Hse), its side-chain hydroxyl chlorinated and reacted with Cys 14, so that the two outer cysteine positions (4 and 14) are joined by the linker of drawing CHEM-US-00008 instead of a disulfide)"
–,–,–,–,–,–,–,–,–,–,4.9 µM,0.005 s⁻¹,–,2.3 mg/mL-column,"{NH2‑PEG4}-GPDCAYHRGELVWCTFH-NH2 (linker 4-14 via 1,3‑dichloro‑2‑propanone)"
